Earlier results, collected in article PMC5871566.
Read-outs that look alike come from different tables or passages of the source.

Experiments:
[1] = biological target: C4b (Homo sapiens) (UniProt P0C0L4)
[2] = biological target: C4b (Homo sapiens) (UniProt P0C0L4); remark: listed apart in the source

Chain of UniProt P0C0L4 (P0C0L4 20-1744, chain 1 of 2): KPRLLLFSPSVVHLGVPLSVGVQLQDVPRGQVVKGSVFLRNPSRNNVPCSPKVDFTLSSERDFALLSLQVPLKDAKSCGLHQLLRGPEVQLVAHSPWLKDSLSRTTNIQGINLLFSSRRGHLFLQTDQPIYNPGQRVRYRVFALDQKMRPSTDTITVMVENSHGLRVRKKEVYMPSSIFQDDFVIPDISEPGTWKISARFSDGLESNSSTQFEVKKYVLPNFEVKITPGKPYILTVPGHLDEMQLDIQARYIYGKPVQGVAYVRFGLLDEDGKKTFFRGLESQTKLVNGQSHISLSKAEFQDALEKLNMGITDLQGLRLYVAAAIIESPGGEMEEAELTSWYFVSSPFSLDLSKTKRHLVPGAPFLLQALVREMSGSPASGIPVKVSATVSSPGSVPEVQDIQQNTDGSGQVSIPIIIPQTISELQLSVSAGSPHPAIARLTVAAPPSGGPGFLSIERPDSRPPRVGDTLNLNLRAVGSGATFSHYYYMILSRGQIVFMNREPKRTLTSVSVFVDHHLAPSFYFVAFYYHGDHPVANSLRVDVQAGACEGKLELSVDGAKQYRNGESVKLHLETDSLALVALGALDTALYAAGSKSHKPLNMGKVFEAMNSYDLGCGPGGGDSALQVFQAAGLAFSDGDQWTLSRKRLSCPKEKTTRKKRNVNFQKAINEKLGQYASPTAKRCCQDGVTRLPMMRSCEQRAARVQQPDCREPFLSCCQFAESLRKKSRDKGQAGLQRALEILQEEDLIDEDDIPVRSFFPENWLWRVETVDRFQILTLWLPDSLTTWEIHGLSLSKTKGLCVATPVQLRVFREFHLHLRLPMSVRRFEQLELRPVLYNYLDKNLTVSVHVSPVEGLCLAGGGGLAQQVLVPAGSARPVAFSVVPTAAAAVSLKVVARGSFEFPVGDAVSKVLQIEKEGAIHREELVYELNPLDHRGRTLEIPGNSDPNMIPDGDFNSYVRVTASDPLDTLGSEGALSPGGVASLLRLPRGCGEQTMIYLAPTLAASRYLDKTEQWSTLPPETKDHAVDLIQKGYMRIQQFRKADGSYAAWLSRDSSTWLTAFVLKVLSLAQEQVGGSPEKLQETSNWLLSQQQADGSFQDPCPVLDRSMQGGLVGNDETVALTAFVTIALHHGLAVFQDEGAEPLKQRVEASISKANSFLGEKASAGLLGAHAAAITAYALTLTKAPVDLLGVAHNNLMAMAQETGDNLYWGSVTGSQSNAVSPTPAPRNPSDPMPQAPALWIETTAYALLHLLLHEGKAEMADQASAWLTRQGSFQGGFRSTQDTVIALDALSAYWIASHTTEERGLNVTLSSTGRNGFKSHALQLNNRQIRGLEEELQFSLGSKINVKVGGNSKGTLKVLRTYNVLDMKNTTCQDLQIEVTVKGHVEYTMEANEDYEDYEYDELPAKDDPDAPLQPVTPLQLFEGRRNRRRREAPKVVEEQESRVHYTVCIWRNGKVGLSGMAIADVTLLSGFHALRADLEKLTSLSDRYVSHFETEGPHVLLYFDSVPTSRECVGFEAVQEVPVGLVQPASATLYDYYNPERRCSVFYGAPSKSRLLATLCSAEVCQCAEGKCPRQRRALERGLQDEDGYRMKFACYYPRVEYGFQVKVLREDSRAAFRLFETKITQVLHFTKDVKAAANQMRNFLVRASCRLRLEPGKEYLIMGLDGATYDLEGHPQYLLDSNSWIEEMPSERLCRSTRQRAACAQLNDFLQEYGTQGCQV
Chain of UniProt P0C0L4 (P0C0L5 20-1744, chain 2 of 2, further chain): as the sequence (P0C0L4 20-1744, chain 1 of 2) above, with A888T, D1054G, P1101L, C1102S, L1105I, D1106H, N1157S, V1188A, L1191R, S1267A counted along it

Substance: Eap individual domains (domain 3 or 4) domain 3 or domain 4 (from UniProt Q2FWW1)
- Kd [1]: 40 µM

Substance: Eap34 domains 3-4 (from UniProt Q99QS1)
- Kd [2]: 0.525 µM
